The record followed here is paper PMC9210283, “DNA cytosine methylation at the lexA promoter of Escherichia coli is stationary phase specific”.

Data set [1] addresses T1, LexA (Escherichia coli, UniProt P0A7C2 1-202). In words: EMSA; concentration as LexA dimer; Hill slope 1.1; 10 mM MgCl2; EMSA: 70 mM Tris-HCl pH 7.5, 2 mM PIPES, 180 mM NaCl, 10 mM MgCl2, 1 ug/ml salmon sperm DNA, 100 ug/ml BSA, 5% glycerol, 0.006% bromophenol blue, 0.1 nM probe. The following applies: protein: recombinant; chain copies: 2; label: 32P (5' on strand 1); blunt. A general note: Mobility shift assays separate free from complexed probe on a gel.

Data set [2] has as its target T1, LexA. Description: EMSA; concentration as LexA dimer; Hill slope 1.2; 10 mM MgCl2; EMSA: 70 mM Tris-HCl pH 7.5, 2 mM PIPES, 180 mM NaCl, 10 mM MgCl2, 1 ug/ml salmon sperm DNA, 100 ug/ml BSA, 5% glycerol, 0.006% bromophenol blue, 0.1 nM probe. To be noted: protein: recombinant; chain copies: 2; label: 32P (5' on strand 1); blunt.

The term Kd denotes the constant that tells how readily two partners part at equilibrium.

T1 sequence (P0A7C2 whole entry): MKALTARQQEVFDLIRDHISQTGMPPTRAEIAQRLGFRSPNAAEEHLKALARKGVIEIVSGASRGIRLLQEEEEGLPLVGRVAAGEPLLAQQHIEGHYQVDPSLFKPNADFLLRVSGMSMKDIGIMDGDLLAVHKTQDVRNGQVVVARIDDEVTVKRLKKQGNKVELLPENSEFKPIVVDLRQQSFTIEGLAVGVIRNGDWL

B1: lexAop 5mC/5mC (mC16 F / mC3 R) (dsDNA)
DNA 1: AATGCCTGCGGAAACTGTATATACACCCAGGGTCAATTCTGGCT
DNA 2: AGCCAGAATTGACCCTGGGTGTATATACAGTTTCCGCAGGCATT
modifications: 5-methyl-dC at position 28 of strand 1 and position 15 of strand 2
On to B1, for which the Kd with LexA [1] is 14 nM.

B2: lexAop C/C (nonmethylated) (dsDNA)
DNA 1: B1 DNA 1
DNA 2: B1 DNA 2
On to B2, for which the equilibrium dissociation constant (Kd) with LexA [2] is 15 nM.
